For data set [1], the system named is HeLa Kyoto. Nature of the data set: thermal stability score vs G1/S (z-score of summed log2 fold changes over temperatures); higher = more thermally stable than in G1/S.
Data set [2] deals with HeLa Kyoto. Nature of the data set: melting temperature (median over replicates), in situ; higher = more thermally stable.
Where [3] appears, read: cell cycle stage: early G1 (4.5 h after nocodazole release).

From the supplement of paper PMC5998384 come the findings set out here.
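Throughout, for melting temperature (median over replicates), in situ: HeLa Kyoto cells synchronized by double thymidine or nocodazole block, proteins quantified by TMT10plex mass spectrometry, three independent biological replicates.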
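Throughout, for thermal stability score vs G1/S (z-score of summed log2 fold changes over temperatures): synchronized HeLa Kyoto cells, proteins quantified by TMT10plex mass spectrometry, three biological replicates, mitosis taken 0.5 h after nocodazole release, G1/S directly after double thymidine block.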

With HRNR, the figures for the thermal stability score in the data set with HeLa Kyoto [1] (setting [3]) and in the data set with HeLa Kyoto [1] (cell cycle stage: mitosis) were 5.84 and 1.12, respectively.

For the substance KIAA0100, the values for the thermal stability score with HeLa Kyoto [1] (setting [3]) and with HeLa Kyoto [1] (cell cycle stage: mitosis) were 1.31 and 1.36, respectively.

Regarding “MAAAVAAALARLLAAFLLLAAQVACEYGMVHVVSQAGGPEGKDYCILYNPQWAHLPHDLSKASFLQLRNWTASLLCSAADLPARGFSNQIPLVARGNCTFYEKVRLAQGSGARGLLIVSRERLVPPGGNKTQYDEIGIPVALLSYKDMLDIFTRFGRTVRAALYAPKEPVLDYNMVIIFIMAVGTVAIGGYWAGSRDVKKRYMKHKRDDGPEKQEDEAVDVTPVMTCVFVVMCCSMLVLLYYFYDLLVYVVIGIFCLASATGLYSCLAPCVRRLPFGKCRIPNNSLPYFHKRPQARMLLLALFCVAVSVVWGVFRNEDQWAWVLQDALGIAFCLYMLKTIRLPTFKACTLLLLVLFLYDIFFVFITPFLTKSGSSIMVEVATGPSDSATREKLPMVLKVPRLNSSPLALCDRPFSLLGFGDILVPGLLVAYCHRFDIQVQSSRVYFVACTIAYGVGLLVTFVALALMQRGQPALLYLVPCTLVTSCAVALWRRELGVFWTGSGFAKVLPPSPWAPAPADGPQPPKDSATPLSPQPPSEEPATSPWPAEQSPKSRTSEEMGAGAPMREPGSPAESEGRDQAQPSPVTQPGASA [SPPL2B]”, the thermal stability score in the data set with HeLa Kyoto [1] (setting [3]) is 0.962; with HeLa Kyoto [1] (cell cycle stage: mitosis), -2.37.

On to “MAAQGEPGYLAAQSDPGSNSERSTDSPVPGSEDDLVAGATLHSPEWSEERFRVDRKKLEAMLQAAAEGKGRSGEDFFQKIMEETNTQIAWPSKLKIGAKSKKDPHIKVSGKKEDVKEAKEMIMSVLDTKSNRVTLKMDVSHTEHSHVIGKGGNNIKKVMEETGCHIHFPDSNRNNQAEKSNQVSIAGQPAGVESARVRIRELLPLVLMFELPIAGILQPVPDPNSPSIQHISQTYNISVSFKQRSRMYGATVIVRGSQNNTSAVKEGTAMLLEHLAGSLASAIPVSTQLDIAAQHHLFMMGRNGSNIKHIMQRTGAQIHFPDPSNPQKKSTVYLQGTIESVCLARQYLMGCLPLVLMFDMKEEIEVDPQFIAQLMEQLDVFISIKPKPKQPSKSVIVKSVERNALNMYEARKCLLGLESSGVTIATSPSPASCPAGLACPSLDILASAGLGLTGLGLLGPTTLSLNTSTTPNSLLNALNSSVSPLQSPSSGTPSPTLWAPPLANTSSATGFSAIPHLMIPSTAQATLTNILLSGVPTYGHTAPSPPPGLTPVDVHINSMQTEGKKISAALNGHAQSPDIKYGAISTSSLGEKVLSANHGDPSIQTSGSEQTSPKSSPTEGCNDAFVEVGMPRSPSHSGNAGDLKQMMCPSKVSCAKRQTVELLQGTKNSHLHSTDRLLSDPELSATESPLADKKAPGSERAAERAAAAQQNSERAHLAPRSSYVNMQAFDYEQKKLLATKAMLKKPVVTEVRTPTNTWSGLGFSKSMPAETIKELRRANHVSYKPTMTTTYEGSSMSLSRSNSREHLGGGSESDNWRDRNGIGPGSHSEFAASIGSPKRKQNKSTEHYLSSSNYMDCISSLTGSNGCNLNSSFKGSDLPELFSKLGLGKYTDVFQQQEIDLQTFLTLTDQDLKELGITTFGARRKMLLAISELNKNRRKLFESPNARTSFLEGGASGRLPRQYHSDIASVSGRW [BICC1]”, for which the thermal stability score with HeLa Kyoto [1] (setting [3]) is -0.0285; in the data set with HeLa Kyoto [1] (cell cycle stage: mitosis), 0.296.

For “MALCEAAGCGSALLWPRLLLFGDSITQFSFQQGGWGASLADRLVRKCDVLNRGFSGYNTRWAKIILPRLIRKGNSLDIPVAVTIFFGANDSALKDENPKQHIPLEEYAANLKSMVQYLKSVDIPENRVILITPTPLCETAWEEQCIIQGCKLNRLNSVVGEYANACLQVAQDCGTDVLDLWTLMQDSQDFSSYLSDGLHLSPKGNEFLFSHLWPLIEKKVSSLPLLLPYWRDVAEAKPELSLLGDGDH [IAH1]”, the figures for the thermal stability score in the data set on HeLa Kyoto [1] (setting [3]) and in the data set on HeLa Kyoto [1] (cell cycle stage: mitosis) were 0.993 and -0.17, respectively.

In the case of “MDDSGELGGLETMETLTELGDELTLGDIDEMLQFVSNQVGEFPDLFSEQLCSSFPGSGGSGSSSGSSGSSSSSSNGRGSSSGAVDPSVQRSFTQVTLPSFSPSAASPQAPTLQVKVSPTSVPTTPRATPILQPRPQPQPQPQTQLQQQTVMITPTFSTTPQTRIIQQPLIYQNAATSFQVLQPQVQSLVTSSQVQPVTIQQQVQTVQAQRVLTQTANGTLQTLAPATVQTVAAPQVQQVPVLVQPQIIKTDSLVLTTLKTDGSPVMAAVQNPALTALTTPIQTAALQVPTLVGSSGTILTTMPVMMGQEKVPIKQVPGGVKQLEPPKEGERRTTHNIIEKRYRSSINDKIIELKDLVMGTDAKMHKSGVLRKAIDYIKYLQQVNHKLRQENMVLKLANQKNKLLKGIDLGSLVDNEVDLKIEDFNQNVLLMSPPASDSGSQAGFSPYSIDSEPGSPLLDDAKVKDEPDSPPVALGMVDRSRILLCVLTFLCLSFNPLTSLLQWGGAHDSDQHPHSGSGRSVLSFESGSGGWFDWMMPTLLLWLVNGVIVLSVFVKLLVHGEPVIRPHSRSSVTFWRHRKQADLDLARGDFAAAAGNLQTCLAVLGRALPTSRLDLACSLSWNVIRYSLQKLRLVRWLLKKVFQCRRATPATEAGFEDEAKTSARDAALAYHRLHQLHITGKLPAGSACSDVHMALCAVNLAECAEEKIPPSTLVEIHLTAAMGLKTRCGGKLGFLASYFLSRAQSLCGPEHSAVPDSLRWLCHPLGQKFFMERSWSVKSAAKESLYCAQRNPADPIAQVHQAFCKNLLERAIESLVKPQAKKKAGDQEEESCEFSSALEYLKLLHSFVDSVGVMSPPLSRSSVLKSALGPDIICRWWTSAITVAISWLQGDDAAVRSHFTKVERIPKALEVTESPLVKAIFHACRAMHASLPGKADGQQSSFCHCERASGHLWSSLNVSGATSDPALNHVVQLLTCDLLLSLRTALWQKQASASQAVGETYHASGAELAGFQRDLGSLRRLAHSFRPAYRKVFLHEATVRLMAGASPTRTHQLLEHSLRRRTTQSTKHGEVDAWPGQRERATAILLACRHLPLSFLSSPGQRAVLLAEAARTLEKVGDRRSCNDCQQMIVKLGGGTAIAAS [SREBF2]”, the thermal stability score in the data set with HeLa Kyoto [1] (setting [3]) was found to be 7.8e-18; with HeLa Kyoto [1] (cell cycle stage: mitosis) it was 1.52e-16.

In the case of “MGAALGTGTRLAPWPGRACGALPRWTPTAPAQGCHSKPGPARPVPLKKRGYDVTRNPHLNKGMAFTLEERLQLGIHGLIPPCFLSQDVQLLRIMRYYERQQSDLDKYIILMTLQDRNEKLFYRVLTSDVEKFMPIVYTPTVGLACQHYGLTFRRPRGLFITIHDKGHLATMLNSWPEDNIKAVVVTDGERILGLGDLGCYGMGIPVGKLALYTACGGVNPQQCLPVLLDVGTNNEELLRDPLYIGLKHQRVHGKAYDDLLDEFMQAVTDKFGINCLIQFEDFANANAFRLLNKYRNKYCMFNDDIQGTASVAVAGILAALRITKNKLSNHVFVFQGAGEAAMGIAHLLVMALEKEGVPKAEATRKIWMVDSKGLIVKGRSHLNHEKEMFAQDHPEVNSLEEVVRLVKPTAIIGVAAIAGAFTEQILRDMASFHERPIIFALSNPTSKAECTAEKCYRVTEGRGIFASGSPFKSVTLEDGKTFIPGQGNNAYVFPGVALGVIAGGIRHIPDEIFLLTAEQIAQEVSEQHLSQGRLYPPLSTIRDVSLRIAIKVLDYAYKHNLASYYPEPKDKEAFVRSLVYTPDYDSFTLDSYTWPKEAMNVQTV [ME3]”, the thermal stability score with HeLa Kyoto [1] (setting [3]) is -5.4; with HeLa Kyoto [1] (cell cycle stage: mitosis), -4.14.

For the substance “MKSLVLLLCLAQLWGCHSAPHGPGLIYRQPNCDDPETEEAALVAIDYINQNLPWGYKHTLNQIDEVKVWPQQPSGELFEIEIDTLETTCHVLDPTPVARCSVRQLKEHAVEGDCDFQLLKLDGKFSVVYAKCDSSPDSAEDVRKVCQDCPLLAPLNDTRVVHAAKAALAAFNAQNNGSNFQLEEISRAQLVPLPPSTYVEFTVSGTDCVAKEATEAAKCNLLAEKQYGFCKATLSEKLGGAEVAVTCMVFQTQPVSSQPQPEGANEAVPTPVVDPDAPPSPPLGAPGLPPAGSPPDSHVLLAAPPGHQLHRAHYDLRHTFMGVVSLGSPSGEVSHPRKTRTVVQPSVGAAAGPVVPPCPGRIRHFKV [AHSG]”, the thermal stability score with HeLa Kyoto [1] (setting [3]) was -0.0372; in the data set with HeLa Kyoto [1] (cell cycle stage: mitosis), -0.632.

For “MNCRSEVLEVSVEGRQVEEAMLAVLHTVLLHRSTGKFHYKKEGTYSIGTVGTQDVDCDFIDFTYVRVSSEELDRALRKVVGEFKDALRNSGGDGLGQMSLEFYQKKKSRWPFSDECIPWEVWTVKVHVVALATEQERQICREKVGEKLCEKIINIVEVMNRHEYLPKMPTQSEVDNVFDTGLRDVQPYLYKISFQITDALGTSVTTTMRRLIKDTLAL [ATG101]”, the thermal stability score with HeLa Kyoto [1] (setting [3]) is 0.111; in the data set with HeLa Kyoto [1] (cell cycle stage: mitosis), 1.17.

On to “MSSSSSSPRETYEEDREYESQAKRLKTEEGEIDYSAEEGENRREATPRGGGDGGGGGRSFSQPEAGGSHHKVSVSPVVHVRGLCESVVEADLVEALEKFGTICYVMMMPFKRQALVEFENIDSAKECVTFAADEPVYIAGQQAFFNYSTSKRITRPGNTDDPSGGNKVLLLSIQNPLYPITVDVLYTVCNPVGKVQRIVIFKRNGIQAMVEFESVLCAQKAKAALNGADIYAGCCTLKIEYARPTRLNVIRNDNDSWDYTKPYLGRRDRGKGRQRQAILGEHPSSFRHDGYGSHGPLLPLPSRYRMGSRDTPELVAYPLPQASSSYMHGGNPSGSVVMVSGLHQLKMNCSRVFNLFCLYGNIEKVKFMKTIPGTALVEMGDEYAVERAVTHLNNVKLFGKRLNVCVSKQHSVVPSQIFELEDGTSSYKDFAMSKNNRFTSAGQASKNIIQPPSCVLHYYNVPLCVTEETFTKLCNDHEVLTFIKYKVFDAKPSAKTLSGLLEWECKTDAVEALTALNHYQIRVPNGSNPYTLKLCFSTSSHL [HNRNPLL]”, for which the melting temperature in the data set with HeLa Kyoto [2] (cell cycle stage: G1/S) worked out at 47.6 °C; with HeLa Kyoto [2] (cell cycle stage: mitosis), 49.7 °C.

“MTQSVVVQVGQCGNQIGCCFWDLALREHAAVNQKGIYDEAISSFFRNVDTRVVGDGGSISKGKICSLKARAVLIDMEEGVVNEILQGPLRDVFDTKQLITDISGSGNNWAVGHKVFGSLYQDQILEKFRKSAEHCDCLQCFFIIHSMGGGTGSGLGTFLLKVLEDEFPEVYRFVTSIYPSGEDDVITSPYNSILAMKELNEHADCVLPIDNQSLFDIISKIDLMVNSGKLGTTVKPKSLVTSSSGALKKQHKKPFDAMNNIVANLLLNLTSSARFEGSLNMDLNEISMNLVPFPQLHYLVSSLTPLYTLTDVNIPPRRLDQMFSDAFSKDHQLLRADPKHSLYLACALMVRGNVQISDLRRNIERLKPSLQFVSWNQEGWKTSLCSVPPVGHSHSLLALANNTCVKPTFMELKERFMRLYKKKAHLHHYLQVEGMEESCFTEAVSSLSALIQEYDQLDATKNMPVQDLPRLSIAM [TUBE1]” had a melting temperature with HeLa Kyoto [2] (cell cycle stage: mitosis) of 55.1 °C.

On to PLXNA2, for which the figures for the melting temperature in the data set on HeLa Kyoto [2] (cell cycle stage: G1/S) and in the data set with HeLa Kyoto [2] (cell cycle stage: mitosis) were 54.1 °C and 54.4 °C, respectively.
